What is called stoichiometry N is a count of units in the complex or per binding partner.

Data on three molecules can be found in publication PMC6312871 (Heliyon, 2018).

“And” between values parts separate entries of the source, which are not always exact repeats. Identical values can stand only once.

The target of data set [1] is Photosystem I (monomer) (Prochlorococcus marinus MIT9313 (endogenous in thylakoid membranes)) (UniProt Q7V510). Put plainly: sucrose gradient centrifugation.
Data set [2] has the same target. Put plainly: native gel or EMSA. For orientation: Mobility shift assays separate free from complexed probe on a gel.
For data set [3], the target named is Photosystem II (monomer, core complex) (Prochlorococcus marinus MIT9313 (endogenous in thylakoid membranes)) (UniProt Q7V6I0). Put plainly: native gel or EMSA.
Photosystem II (monomer, core complex) (Prochlorococcus marinus MIT9313 (endogenous in thylakoid membranes)), sequence (Q7V6I0 whole entry, looked up, one chain of several): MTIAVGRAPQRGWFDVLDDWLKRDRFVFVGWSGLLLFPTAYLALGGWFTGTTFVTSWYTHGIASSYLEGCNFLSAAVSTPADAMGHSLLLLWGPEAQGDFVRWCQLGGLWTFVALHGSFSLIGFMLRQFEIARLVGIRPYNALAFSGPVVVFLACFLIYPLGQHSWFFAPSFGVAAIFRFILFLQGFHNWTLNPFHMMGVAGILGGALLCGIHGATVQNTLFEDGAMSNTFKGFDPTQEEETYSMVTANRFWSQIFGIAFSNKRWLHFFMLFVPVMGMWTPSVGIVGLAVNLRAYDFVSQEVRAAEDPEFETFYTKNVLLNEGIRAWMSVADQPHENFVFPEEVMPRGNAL
Data set [4] shares this target. The data set is described as follows: native gel or EMSA. This is another data set of the same source.
The data set “native gel or EMSA” deals with the molecule itself. The data set is described as follows: native gel or EMSA.

Turning to “Photosystem I (monomer) (from UniProt Q7V510 1-776; Q7V511 1-749; Q7V8Y4 1-68) (complex)”, the stoichiometry N in data set [1] and in data set [2] was 3 throughout. “Photosystem II (monomer, core complex) (from UniProt Q7V6I0 1-351; Q7V4Q1 1-49; Q7V4P9 1-65)” showed a stoichiometry N in data set [3] of 2.

B1: light-harvesting antenna protein PcbB (divinyl chlorophyll a/b-binding protein) (natural protein, UniProt Q7V6U4 1-350, looked up)
chain: MQTYGNPNPTYGWWAGNAGTTNRSGKFLAAHIAHTGLMAFWAGSFTLFELSRYDPSVPMGHQPLVALPHLATLGIGVGDGGVITDTYPIVVTAVLHLVLSMVYAAGGLMHSLLFNGDIGEMGVKWARKFDFKWDDPDKLTFILGHHLFLLGLGNVQFVEWAKYYGLYDNAEGVVRTVVPNLNIGMVWNAQFNFLAINSLEDVMGGHAFLALFMMSGGLWHIVTKQAGEYTTFKGKGILSAEAQLSWALAGVGWMALVAAFWCASNTTIYPDTFFGEVLDLKFSISPYWVDTANLPEGTYTSRAWLTNIHYYLGFFYIQGHLWHALRALGFDFKRVSNAIGNADSATITLN
Take B1: the stoichiometry N (PcbB per PSII dimer) in data set [4] turned out to be 8. In “native gel or EMSA”, the “stoichiometry N” value was 2 and 3 and 4.
